Test results: paper PMC5386471

Molecular target: Flag-ACRP-hCD40L

GPI-anchored CD40 ectodomain (from UniProt P25942 21-193)
amount of transfected CD40-GPI plasmid sufficient to inhibit 50% of CD40-induced NF-κB response (luciferase reporter, 293T cells; CD40L here from 1 ng of co-transfected plasmid): 1.4 ng
